According to US20230035037A1 (published 2023):

Columns and labels:
[1] = target: … (SEQ ID NO: 1) presented by HLA-A*0201 on peptide-pulsed cells (human); test: cell-based or functional assay
[2] = target: … (SEQ ID NO: 16) presented by HLA-A*0201 on peptide-pulsed cells (human); test: cell-based or functional assay
[3] = target: … (SEQ ID NO: 2) presented by HLA-A*0201 on cells (human); test: cell-based or functional assay
[4] = target: … (SEQ ID NO: 18) presented by HLA-A*0201 on peptide-pulsed cells (human); test: cell-based or functional assay
[5] = target: T1, LRPAP1 (signal peptide) peptide on HLA-A*02:01 (human); test: titration of short peptide on HLA-A*0201 positive T2 cells or EBV-JY cells; cytokine secretion by the LRPAP1-specific T cell clone (FIG. 1d, 1e); T cell clone or line
T1 peptide: FLGPWPAAS

[6] = target: T2, LRPAP1 (signal peptide), I-variant at position 9 peptide on HLA-A*02:01 (human); test: as above
T2 peptide: FLGPWPAAI

[7] = target: T3, LRPAP1 (signal peptide), L-variant at position 9 peptide on HLA-A*02:01 (human); test: as above
T3 peptide: FLGPWPAAL

[8] = target: T4, LRPAP1 (signal peptide), V-variant: C-terminal serine replaced by valine peptide on HLA-A*02:01 (human); test: as above
T4 peptide: FLGPWPAAV

EC50 of the T cell response to peptide-pulsed HLA-A*0201 positive cells (functional T cell avidity) [1]: 0.1 µg/mL
T cell activation, V-peptide against S-peptide [1]: 19 fold
EC50 of the T cell response to peptide-pulsed HLA-A*0201 positive cells (functional T cell avidity) [2]: 0.7 µg/mL
EC50 of the T cell response to peptide-pulsed HLA-A*0201 positive cells (functional T cell avidity) [3]: 1.9 µg/mL
EC50 of the T cell response to peptide-pulsed HLA-A*0201 positive cells (functional T cell avidity) [4]: 3.7 µg/mL
EC50 of peptide [5]: 1.9 µg/mL
EC50 of peptide [6]: 0.7 µg/mL
EC50 of peptide [7]: 3.7 µg/mL
EC50 of peptide [8]: 0.1 µg/mL
B1: TCR of the LRPAP1-specific T cell clone 1A8 (TCR, V domains shown)
Valpha: RKEVEQDPGPFNVPEGATVAFNCTYSNSASQSFFWYRQDCRKEPKLLMSVYSSGNEDGRFTAQLNRASQYISLLIRDSKLSDSATYLCVVMGYGQNFVFGPGTRLSVLP
Vbeta: GAVVSQHPSWVICKSGTSVKIECRSLDFQATTMFWYRQFPKQSLMLMATSNEGSKATYEQGVEKDKFLINHASLTLSTLTVTSAHPEDSSFYICSAMGRQSTDTQYFGPGTRLTVL
